# Reference: patent US20220267796A1
# Columns and labels:
# [1] = molecular target: AAV8 (recombinant adeno-associated virus serotype 8 particles, capsid of VP1, VP2 and VP3 of AAV8) (adeno-associated virus 8 (AAV8)); experiment: affinity chromatography on AAVX column, +18-26° C., 125 mM NaCl/50 mM TrisHCl pH 8.5; AAV8 ELISA of fraction (load 23.2 x 10^11 cp/ml)
# [2] = molecular target: AAV9 (recombinant adeno-associated virus serotype 9 particles, capsid of VP1, VP2 and VP3 of AAV9) (adeno-associated virus 9 (AAV9)); experiment: batch adsorption, 0.2 g resin + 9.6 g LOAD, 15 to 16 h at +2° C. to +8° C.; AAV9 ELISA of supernatant
# [3] = molecular target: AAV9 (recombinant adeno-associated virus serotype 9 particles, capsid of VP1, VP2 and VP3 of AAV9) (adeno-associated virus 9 (AAV9)); experiment: batch adsorption at room temperature, then 30 min in 1 ml cold 125 mM NaCl/50 mM Tris HCl pH 8.5 at +2° C. to +8° C.; AAV9 ELISA of supernatant
# [4] = molecular target: AAV8 (recombinant adeno-associated virus serotype 8 particles, capsid of VP1, VP2 and VP3 of AAV8) (adeno-associated virus 8 (AAV8)); experiment: affinity chromatography on AAVX column, +2-8° C., 100 mM NaAcetate/0.1% Tween 80 pH 6.0; AAV8 ELISA of fraction
# [5] = molecular target: AAV8 (recombinant adeno-associated virus serotype 8 particles, capsid of VP1, VP2 and VP3 of AAV8) (adeno-associated virus 8 (AAV8)); experiment: affinity chromatography on AAVX column, +18-26° C., 100 mM NaAcetate/0.1% Tween 80 pH 6.0; AAV8 ELISA of fraction
# [6] = molecular target: AAV9 (recombinant adeno-associated virus serotype 9 particles, capsid of VP1, VP2 and VP3 of AAV9) (adeno-associated virus 9 (AAV9)); experiment: affinity chromatography on AAVX column, elution at +2-8° C. with 125 mM NaCl/50 mM TrisHCl pH 8.5; AAV9 ELISA of fraction
# [7] = molecular target: AAV9 (recombinant adeno-associated virus serotype 9 particles, capsid of VP1, VP2 and VP3 of AAV9) (adeno-associated virus 9 (AAV9)); experiment: affinity chromatography on AAVX column, strip at +2-8° C. with 100 mM Glycine, 200 mM NaCl pH 2.0; AAV9 ELISA of fraction
# [8] = molecular target: AAV9 (recombinant adeno-associated virus serotype 9 particles, capsid of VP1, VP2 and VP3 of AAV9) (adeno-associated virus 9 (AAV9)); experiment: affinity chromatography on AAVX column, standard elution at +18-26° C. with 100 mM Glycine, 200 mM NaCl pH 2.7; AAV9 ELISA of fraction
# [9] = molecular target: AAV9 (recombinant adeno-associated virus serotype 9 particles, capsid of VP1, VP2 and VP3 of AAV9) (adeno-associated virus 9 (AAV9)); experiment: batch adsorption, 0.2 g resin + 9.6 g LOAD, 15 to 16 h at +18° C. to +30° C., 125 mM NaCl/50 mM Tris HCl pH 8.5; AAV9 ELISA of supernatant
# [10] = molecular target: AAV8 (recombinant adeno-associated virus serotype 8 particles, capsid of VP1, VP2 and VP3 of AAV8) (adeno-associated virus 8 (AAV8)); experiment: affinity chromatography on AAVX column, +18-26° C., 125 mM NaCl/50 mM TrisHCl pH 8.5; AAV8 ELISA of fraction
# [11] = molecular target: AAV9 (recombinant adeno-associated virus serotype 9 particles, capsid of VP1, VP2 and VP3 of AAV9) (adeno-associated virus 9 (AAV9)); experiment: affinity chromatography on AAVX column, +22-28° C., 125 mM NaCl/50 mM TrisHCl pH 8.5; AAV9 ELISA of fraction
# [12] = molecular target: AAV9 (recombinant adeno-associated virus serotype 9 particles, capsid of VP1, VP2 and VP3 of AAV9) (adeno-associated virus 9 (AAV9)); experiment: affinity chromatography on AAVX column, elution at +2-8° C. with 100 mM NaAcetate/0.1% Tween 80 pH 6.0; AAV9 ELISA of fraction
# [13] = molecular target: AAV9 (recombinant adeno-associated virus serotype 9 particles, capsid of VP1, VP2 and VP3 of AAV9) (adeno-associated virus 9 (AAV9)); experiment: affinity chromatography on AAVX column, gradient 1 mM to 20 mM HCl/200 mM NaCl at +2-8° C.; AAV9 ELISA of fraction
# [14] = molecular target: AAV8 (recombinant adeno-associated virus serotype 8 particles, capsid of VP1, VP2 and VP3 of AAV8) (adeno-associated virus 8 (AAV8)); experiment: affinity chromatography on AAVX column, +2-8° C., ELT-buffer pH 7.0; AAV8 ELISA of fraction
# [15] = molecular target: AAV8 (recombinant adeno-associated virus serotype 8 particles, capsid of VP1, VP2 and VP3 of AAV8) (adeno-associated virus 8 (AAV8)); experiment: affinity chromatography on AAVX column, gradient 1 mM to 20 mM HCl/200 mM NaCl at +2-8° C.; AAV8 ELISA of pooled fraction
# [16] = molecular target: AAV9 (recombinant adeno-associated virus serotype 9 particles, capsid of VP1, VP2 and VP3 of AAV9) (adeno-associated virus 9 (AAV9)); experiment: affinity chromatography on AAVX column, +22-28° C., 100 mM NaAcetate/0.1% Tween 80 pH 6.0; AAV9 ELISA of fraction
# [17] = molecular target: AAV9 (recombinant adeno-associated virus serotype 9 particles, capsid of VP1, VP2 and VP3 of AAV9) (adeno-associated virus 9 (AAV9)); experiment: affinity chromatography on AAVX column, +22-28° C., 125 mM NaCl/50 mM TrisHCl pH 8.5; AAV9 ELISA of fraction (load 2.86 x 10^11 cp/ml)
# [18] = molecular target: AAV8 (recombinant adeno-associated virus serotype 8 particles, capsid of VP1, VP2 and VP3 of AAV8) (adeno-associated virus 8 (AAV8)); experiment: affinity chromatography on AAVX column, +2-8° C., 125 mM NaCl/50 mM TrisHCl pH 8.5; AAV8 ELISA of fraction
substance,measurement,setting,value
"POROS CaptureSelect AAVX Affinity Resin (Cat. No. 36742; Thermo Fisher), immobilised affinity ligand",AAV8 Antigen cp/ml in flow-through/wash 1 (not bound),[1],< 1.59e+09 cp/ml
same,% AAV9 Antigen in supernatant (not bound) after incubation at low temperature,[2],63.7%
same,% AAV9 Antigen in eluate (released at low temperature),[3],36.7%
same,AAV8 Antigen cp/ml in low temperature eluate 1,[4],< 1.59e+09 cp/ml
same,AAV8 Antigen cp/ml in wash 2,[5],< 1.59e+09 cp/ml
same,AAV8 Antigen cp/ml in wash 4,[5],< 1.59e+09 cp/ml
same,AAV9 Antigen [%] of load released in low temperature eluate,[6],44.8%
same,AAV9 Antigen [%] of load released in low temperature eluate 3,[6],11.6%
same,AAV9 Antigen [%] of load released only by acidic strip,[7],16.9%
same,AAV9 Antigen [%] of load released by acidic elution,[8],81.5%
same,% AAV9 Antigen in supernatant (not bound) after incubation at room temperature,[9],6.2%
same,AAV8 Antigen cp/ml in wash 3,[10],< 1.59e+09 cp/ml
same,AAV9 Antigen [%] of load found in flow-through/wash 1 (not bound),[11],1.76%
same,AAV9 Antigen [%] of load found in wash 3,[11],0.04%
same,AAV9 Antigen cp/ml in wash 3,[11],< 3.8e+09 cp/ml
same,AAV9 Antigen [%] of load released in low temperature eluate 1,[12],61.2%
same,AAV9 Antigen [%] of load released by acidic gradient,[13],5.42%
same,AAV8 Antigen cp/ml in low temperature eluate 2,[14],< 1.59e+09 cp/ml
same,AAV8 Antigen [%] of load released by acidic gradient,[15],75.8%
same,AAV9 Antigen [%] of load found in wash 2,[16],0.04%
same,AAV9 Antigen cp/ml in wash 2,[16],< 3.8e+09 cp/ml
same,AAV9 Antigen cp/ml in wash 4,[16],< 3.8e+09 cp/ml
same,AAV9 Antigen cp/ml in flow-through/wash 1 (not bound),[17],< 3.8e+09 cp/ml
same,AAV8 Antigen cp/ml in low temperature eluate 3,[18],< 1.59e+09 cp/ml
